Results as given in patent US20230146665A1 (Xencor, published 2023).

Target: T1, IL18BP (human, UniProt O95998 31-194)
T1 construct: also called ILBP antigen
T1 sequence (looked up): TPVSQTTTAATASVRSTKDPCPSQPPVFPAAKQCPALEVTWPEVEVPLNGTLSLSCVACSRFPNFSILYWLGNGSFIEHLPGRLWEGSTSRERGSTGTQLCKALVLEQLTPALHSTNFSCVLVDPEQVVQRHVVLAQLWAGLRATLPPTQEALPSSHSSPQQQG
Experiment: Octet (BLI), IL18BP as ligand on the biosensor, IL18 fusion as analyte
From the text: Binding of variant IL18 to IL18 receptors or IL18BP were investigated using Octet, a BioLayer Interferometry (BLI)-based method. Experimental steps for Octet generally include the following: Immobilization (capture of ligand to a biosensor); Association (dipping of ligand-coated biosensors into wells containing serial dilutions of the analyte); and Dissociation (returning of biosensors to well containing buffer) in order to determine the affinity of the test articles. A reference well containing buffer alone was also included in the method for background correction during data processing. In particular, ligands used were IL18R1, IL18R1xIL18RAP heterodimer, or IL18BP, and the analytes were IL18 fusions. Illustrative sequences for these antigens are depicted in FIGS. 1-3 (respectively for human, mouse, and cynomolgus monkey).

B1: XENP40253 (Fc fusion)
chain: YFGKLESKLSVIRNLNDQVLFIDQGNRPLFEDMTDSDSRDNAPRTIFIISMYDDSQPRGMAVTISVKSEKISTLSSENKIISFKEMNPPDNIKDTKSDIIFFQRSVPGHDNKMQFESSSYEGYFLASEKERDLFKLILKKEDELGDRSIMFTVQNEDEPKSSDKTHTCPPCPAPPVAGPSVFLFPPKPKDTLMISRTPEVTCVVVDVKHEDPEVKFNWYVDGVEVHNAKTKPREEEYNSTYRVVSVLTVLHQDWLNGKEYKCKVSNKALPAPIEKTISKAKGQPREPQVYTLPPSREEMTKNQVSLTCDVSGFYPSDIAVEWESDGQPENNYKTTPPVLDSDGSFFLYSKLTVDKSRWEQGDVFSCSVMHEALHNHYTQKSLSLSPG
heavy: QVQLQESGPGLVRPSQTLSLTCTVSGFSLTGYGVNWVRQPPGRGLEWIGMIWGDGNTDYNSALKSRVTMLKDTSKNQFSLRLSSVTAADTAVYYCARERDYRLDYWGQGSLVTVSSASTKGPSVFPLAPSSKSTSGGTAALGCLVKDYFPEPVTVSWNSGALTSGVHTFPAVLQSSGLYSLSSVVTVPSSSLGTQTYICNVNHKPSNTKVDKKVEPKSCDKTHTCPPCPAPPVAGPSVFLFPPKPKDTLMISRTPEVTCVVVDVKHEDPEVKFNWYVDGVEVHNAKTKPREEQYNSTYRVVSVLTVLHQDWLNGKEYKCKVSNKALPAPIEKTISKAKGQPREPQVYTLPPSREQMTKNQVKLTCLVKGFYPSDIAVEWESNGQPENNYKTTPPVLDSDGSFFLYSKLTVDKSRWQQGNVFSCSVMHEALHNRFTQKSLSLSPG
light: DIQMTQSPSSLSASVGDRVTITCRASGNIHNYLAWYQQKPGKAPKLLIYYTTTLADGVPSRFSGSGSGTDYTFTISSLQPEDIATYYCQHFWSTPRTFGQGTKVEIKRTVAAPSVFIFPPSDEQLKSGTASVVCLLNNFYPREAKVQWKVDNALQSGNSQESVTEQDSKDSTYSLSSTLTLSKADYEKHKVYACEVTHQGLSSPVTKSFNRGEC
notes: also called K53D single substitution variant; K53D
B1: no binding.
